Measurements: PMC4102620 (Journal of molecular biology, 2014)

Biological target: yeast E1 (Uba1) (yeast, UniProt P22515 1-1024, biotin on the C-terminal biotin ligase acceptor peptide)
Assay: fluorescent FL-UB-E1 band on non-reducing SDS-PAGE

B1: fluorescently labeled wild type ubiquitin (FL-UB) (natural protein)
chain: not shown
modifications: fluorescein (iodoacetamide) on the unique cysteine of the N-terminal tag
  binding result: binds
